Measurements published in patent US20120040375A1 (NATIONAL UNIVERSITY CORPORATION HOKKAIDO UNIVERSITY, published 2012).

What was measured:
[1] = biological target: T1, biotin-labeled T-47D culture supernatant (MUC1) (human, UniProt P15941 24-1097, limits assumed, biotin-labeled with Sulfo-NHS-Biotin); assay: SPR, Biacore, biotin-labeled T-47D culture supernatant on sensor chip SA
T1 construct: The whole concentrated supernatant was biotinylated and put on the chip

Biotin-Tn(DT*R)-100 = biological target: T2, Biotin-Tn(DT*R)-100 (N-terminal Biotin-PEG-linker; Thr(GalNAcα) in each Asp-Thr-Arg (5 sites); C-terminal amide (NH2)); assay: SPR, Biacore T100, Biotin-Tn(DT*R)-100 on sensor chip SA
T2 construct: also called Compound No. 21; Compound 21
T2 sequence (peptide, as listed by the source limits assumed): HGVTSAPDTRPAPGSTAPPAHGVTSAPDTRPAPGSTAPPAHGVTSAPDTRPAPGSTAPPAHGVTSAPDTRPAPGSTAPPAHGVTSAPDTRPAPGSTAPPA

T1 sequence (P15941 24-1097 limits assumed): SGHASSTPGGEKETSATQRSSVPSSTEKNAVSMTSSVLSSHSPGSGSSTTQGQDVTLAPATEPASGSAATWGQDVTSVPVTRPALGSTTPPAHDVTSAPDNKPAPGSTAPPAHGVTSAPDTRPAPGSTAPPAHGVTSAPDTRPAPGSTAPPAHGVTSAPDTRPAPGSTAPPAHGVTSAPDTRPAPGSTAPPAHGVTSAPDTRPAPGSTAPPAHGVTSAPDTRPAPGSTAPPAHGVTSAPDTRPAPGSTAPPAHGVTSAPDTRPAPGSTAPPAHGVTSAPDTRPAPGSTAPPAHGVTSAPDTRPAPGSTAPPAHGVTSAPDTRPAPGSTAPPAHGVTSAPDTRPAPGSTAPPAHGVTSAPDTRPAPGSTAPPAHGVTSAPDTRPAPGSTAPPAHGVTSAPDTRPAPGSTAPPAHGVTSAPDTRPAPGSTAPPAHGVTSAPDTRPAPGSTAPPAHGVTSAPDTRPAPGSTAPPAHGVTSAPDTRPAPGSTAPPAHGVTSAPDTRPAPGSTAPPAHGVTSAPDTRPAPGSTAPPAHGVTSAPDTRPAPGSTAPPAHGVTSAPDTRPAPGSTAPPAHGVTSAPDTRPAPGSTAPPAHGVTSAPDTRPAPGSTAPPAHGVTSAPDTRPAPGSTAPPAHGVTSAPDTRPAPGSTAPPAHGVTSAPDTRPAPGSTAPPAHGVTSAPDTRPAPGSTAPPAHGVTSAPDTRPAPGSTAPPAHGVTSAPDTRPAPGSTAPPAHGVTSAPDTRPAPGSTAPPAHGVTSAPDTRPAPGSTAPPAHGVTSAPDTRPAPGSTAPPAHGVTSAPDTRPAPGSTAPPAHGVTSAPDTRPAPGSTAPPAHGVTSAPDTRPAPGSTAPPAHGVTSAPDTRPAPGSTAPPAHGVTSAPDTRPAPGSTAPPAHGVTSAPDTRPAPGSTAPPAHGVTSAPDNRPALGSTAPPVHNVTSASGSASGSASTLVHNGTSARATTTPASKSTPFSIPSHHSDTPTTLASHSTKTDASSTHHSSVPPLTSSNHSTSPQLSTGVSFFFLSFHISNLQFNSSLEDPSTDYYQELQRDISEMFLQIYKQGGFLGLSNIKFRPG

B1: PankoMab (antibody, V domains shown)
VH: EVQLVESGGGLVQPGGSMRLSCVASGFPFSNYWMNWVRQAPGKGLEWVGEIRLKSNNYTTHYAESVKGRFTISRDDSKNSLYLQMNSLKTEDTAVYYCTRHYYFDYWGQGTLVTVSS
VL: DIVMTQSPLSNPVTPGEPASISCRSSKSLLHSNGITYFFWYLQKPGQSPQLLIYQMSNLASGVPDRFSGSGSGTDFTLRISRVEAEDVGVYYCAQNLELPPTFGQGTKVEIKR
Kd [1]: 100 nM | koff [1]: 0.045 s⁻¹ | kon [1]: 440000 M⁻¹ s⁻¹ | Kd (Biotin-Tn(DT*R)-100): 1500 nM | koff (Biotin-Tn(DT*R)-100): 0.19 s⁻¹ | kon (Biotin-Tn(DT*R)-100): 120000 M⁻¹ s⁻¹
